This note sets out measurements from patent publication US20170002055A1, “Novel peptides and combination of peptides for use in immunotherapy against ovarian cancer and other cancers” (immatics biotechnologies GmbH, priority 2015, published 2017).

The experiment deals with HLA-A*02:01 (Homo sapiens, UniProt P04439, D140Y/D185E/D98H/E176V/E277Q/G131W/G231S/I119V/I121R/I166T/I218V/L300P/L318F/N151K/N90K/P208A/P217A/Q86G/Q94H/R138H/R169H/T345S). Kind of experiment: MHC binding assay (UV-ligand exchange, β2m ELISA, peptide exchange yield). As to conditions: MHC class I binding score; binding to HLA-A*02:01 ranged by peptide exchange yield (UV-ligand exchange, β2m ELISA). The source says: Candidate peptides for T cell based therapies according to the present invention were further tested for their MHC binding capacity (affinity). The individual peptide-MHC complexes were produced by UV-ligand exchange, where a UV-sensitive peptide is cleaved upon UV-irradiation, and exchanged with the peptide of interest as analyzed. Only peptide candidates that can effectively bind and stabilize the peptide-receptive MHC molecules prevent dissociation of the MHC complexes. To determine the yield of the exchange reaction, an ELISA was performed based on the detection of the light chain (β2m) of stabilized MHC complexes. The assay was performed as generally described in Rodenko et al. (Rodenko et al., 2006).
96 well MAXISorp plates (NUNC) were coated over night with 2 ug/ml streptavidin in PBS at room temperature, washed 4× and blocked for 1h at 37° C. in 2% BSA containing blocking buffer. […] Peptide-MHC monomers of the UV-exchange reaction were diluted 100 fold in blocking buffer. Samples were incubated for 1h at 37° C., washed four times, incubated with 2 ug/ml HRP conjugated anti-β2m for 1h at 37° C., washed again and detected with TMB solution that is stopped with […]. Absorption was measured at 450 nm. Candidate peptides that show a high exchange yield (preferably higher than 50%, most preferred higher than 75%) are generally preferred for a generation and production of antibodies or fragments thereof, and/or T cell receptors or fragments thereof, as they show sufficient avidity to the MHC molecules and prevent dissociation of the MHC complexes.
On the technique in general: An ELISA detects its analyte on a solid surface through an enzyme-linked reagent.
On to “163 (ALDEMGDLLQL; listed as Homo sapiens) [compound 163]”, for which the Peptide exchange result was ““+++” (≧50 = +++)”.
The entry for “164 (ALLPQPKNLTV; listed as Homo sapiens) [compound 164]” is ““+++” (≧50 = +++)”; for “165 (SLLDEIRAV; listed as Homo sapiens) [compound 165]” it is ““+++” (≧50 = +++)”; for “167 (KVLEVTEEFGV; listed as Homo sapiens) [compound 167]” it is ““+++” (≧50 = +++)”.
The entry for “168 (KILDADIQL; listed as Homo sapiens) [compound 168]” is ““++++” (≧75% = ++++)”.
The entry for “169 (NLPEYLPFV; listed as Homo sapiens) [compound 169]” is ““+++” (≧50 = +++)”; for “170 (RLQETLSAA; listed as Homo sapiens) [compound 170]” it is ““+++” (≧50 = +++)”; for “171 (LLLPLQILL; listed as Homo sapiens) [compound 171]” it is ““+++” (≧50 = +++)”.
With “172 (VLYSYTIITV; listed as Homo sapiens) [compound 172]”, the Peptide exchange entry is on record as ““++” (≧20% = ++)”.
Under “173 (LLDSASAGLYL; listed as Homo sapiens) [compound 173]” stands ““+++” (≧50 = +++)”; under “174 (ALAQYLITA; listed as Homo sapiens) [compound 174]”, ““+++” (≧50 = +++)”.
Under “175 (YLFENISQL; listed as Homo sapiens) [compound 175]” stands ““+++” (≧50 = +++)”.
As for “176 (YLMEGSYNKVFL; listed as Homo sapiens) [compound 176]”, the Peptide exchange entry is reported as ““++” (≧20% = ++)”.
The entry for “177 (YLLPEEYTSTL; listed as Homo sapiens) [compound 177]” is ““++++” (≧75% = ++++)”.
Consider “178 (ALTEIAFVV; listed as Homo sapiens) [compound 178]”, for which the Peptide exchange entry is recorded as ““++++” (≧75% = ++++)”.
Under “179 (KVLNELYTV; listed as Homo sapiens) [compound 179]” stands ““+++” (≧50 = +++)”.
The entry for “180 (FQIDPHSGLVTV; listed as Homo sapiens) [compound 180]” is ““++” (≧20% = ++)”.
The entry for “181 (LLWAGTAFQV; listed as Homo sapiens) [compound 181]” is ““+++” (≧50 = +++)”; for “182 (MLLEAPGIFL; listed as Homo sapiens) [compound 182]” it is ““+++” (≧50 = +++)”; for “183 (FGLDLVTEL; listed as Homo sapiens) [compound 183]” it is ““+++” (≧50 = +++)”.
In the case of “184 (YLMDINGKMWL; listed as Homo sapiens) [compound 184]”, the Peptide exchange entry is on record as ““+++” (≧50 = +++)”.
Under “185 (FLIDDKGYTL; listed as Homo sapiens) [compound 185]” stands ““++” (≧20% = ++)”; under “186 (TLFFQQNAL; listed as Homo sapiens) [compound 186]”, ““++” (≧20% = ++)”; under “187 (RQISIRGIVGV; listed as Homo sapiens) [compound 187]”, ““+++” (≧50 = +++)”.
For “188 (GLFPVTPEAV; listed as Homo sapiens) [compound 188]”, the Peptide exchange entry is ““+++” (≧50 = +++)”.
The entry for “189 (ALQRKLPYV; listed as Homo sapiens) [compound 189]” is ““+++” (≧50 = +++)”.
In the case of “190 (FLSSLTETI; listed as Homo sapiens) [compound 190]”, the Peptide exchange entry is listed as ““+++” (≧50 = +++)”.
The entry for “192 (KMLDGASFTL; listed as Homo sapiens) [compound 192]” is ““+++” (≧50 = +++)”; for “193 (QLLDADGFLNV; listed as Homo sapiens) [compound 193]” it is ““+++” (≧50 = +++)”; for “194 (ALPLFVITV; listed as Homo sapiens) [compound 194]” it is ““+++” (≧50 = +++)”.
Under “195 (GLFADLLPRL; listed as Homo sapiens) [compound 195]” stands ““+++” (≧50 = +++)”; under “196 (YLYSVEIKL; listed as Homo sapiens) [compound 196]”, ““++++” (≧75% = ++++)”.
The entry for “197 (ALGPEGGRV; listed as Homo sapiens) [compound 197]” is ““++” (≧20% = ++)”; for “200 (LLFGSVQEV; listed as Homo sapiens) [compound 200]” it is ““+++” (≧50 = +++)”; for “201 (RLVDYLEGI; listed as Homo sapiens) [compound 201]” it is ““+++” (≧50 = +++)”.
As for “202 (ALLDQQGSRWTL; listed as Homo sapiens) [compound 202]”, the Peptide exchange entry was ““+++” (≧50 = +++)”.
The entry for “204 (KIAENVEEV; listed as Homo sapiens) [compound 204]” is ““++” (≧20% = ++)”.
Under “205 (SLYPGTETMGL; listed as Homo sapiens) [compound 205]” stands ““+++” (≧50 = +++)”; under “206 (VLQEGKLQKLAQL; listed as Homo sapiens) [compound 206]”, ““+++” (≧50 = +++)”; under “207 (GLTSTNAEV; listed as Homo sapiens) [compound 207]”, ““++” (≧20% = ++)”.
As for “208 (KISPVTFSV; listed as Homo sapiens) [compound 208]”, the Peptide exchange entry is given as ““+++” (≧50 = +++)”.
The entry for “209 (KLIESKHEV; listed as Homo sapiens) [compound 209]” is ““++” (≧20% = ++)”; for “210 (LLLNAVLTV; listed as Homo sapiens) [compound 210]” it is ““++” (≧20% = ++)”; for “211 (LLWPGAALL; listed as Homo sapiens) [compound 211]” it is ““++” (≧20% = ++)”.
Under “212 (ALWDQDNLSV; listed as Homo sapiens) [compound 212]” stands ““++” (≧20% = ++)”; under “214 (FLLDLDPLLL; listed as Homo sapiens) [compound 214]”, ““+++” (≧50 = +++)”; under “216 (NLWEDPYYL; listed as Homo sapiens) [compound 216]”, ““+++” (≧50 = +++)”.
The entry for “217 (ALIHPVSTV; listed as Homo sapiens) [compound 217]” is ““++” (≧20% = ++)”; for “218 (SALEELVNV; listed as Homo sapiens) [compound 218]” it is ““++” (≧20% = ++)”.
As for “219 (KLSDIGITV; listed as Homo sapiens) [compound 219]”, the Peptide exchange entry is recorded as ““+++” (≧50 = +++)”.
Under “220 (LLQKFVPEI; listed as Homo sapiens) [compound 220]” stands ““++” (≧20% = ++)”.
Under “221 (ALYEEGLLL; listed as Homo sapiens) [compound 221]” stands ““++” (≧20% = ++)”; under “222 (NLIENVQRL; listed as Homo sapiens) [compound 222]”, ““++” (≧20% = ++)”.
The entry for “223 (ALLENIALYL; listed as Homo sapiens) [compound 223]” is ““+++” (≧50 = +++)”.
For the substance “224 (TLIDAQWVL; listed as Homo sapiens) [compound 224]”, the Peptide exchange result is ““+++” (≧50 = +++)”.
The entry for “225 (SLLKVLPAL; listed as Homo sapiens) [compound 225]” is ““+++” (≧50 = +++)”.
The entry for “226 (MLYVVPIYL; listed as Homo sapiens) [compound 226]” is ““++” (≧20% = ++)”; for “227 (ALMNTLLYL; listed as Homo sapiens) [compound 227]” it is ““++” (≧20% = ++)”; for “228 (AMQEYIAVV; listed as Homo sapiens) [compound 228]” it is ““++” (≧20% = ++)”.
Under “229 (RLPGPLGTV; listed as Homo sapiens) [compound 229]” stands ““++” (≧20% = ++)”.
For the substance “230 (ILVDWLVEV; listed as Homo sapiens) [compound 230]”, the Peptide exchange entry is ““+” (≧10% = +)”.
In the case of “231 (FLSPQQPPLLL; listed as Homo sapiens) [compound 231]”, the Peptide exchange entry is reported as ““++” (≧20% = ++)”.
Under “232 (ALLEAQDVELYL; listed as Homo sapiens) [compound 232]” stands ““++” (≧20% = ++)”.
Consider “233 (VLSETLYEL; listed as Homo sapiens) [compound 233]”, for which the Peptide exchange result was ““++” (≧20% = ++)”.
With “234 (ALMEDTGRQML; listed as Homo sapiens) [compound 234]”, the Peptide exchange entry is ““++” (≧20% = ++)”.
